Experimental data published in the supplement of paper PMC10126150.
± gives the standard deviation of the averaged measurements.

Tested on: ATP
Test: switch fluorescence ratio, 500 uM ATP over buffer (Cy3 cluster intensity, sum of 5 cycles each) (fold (ratio)); higher = stronger signal-on switching upon ATP binding; sequences stand for … in TCGTCGGCAGCGTCAGATGTGTATAAGAGACAGTTTTTTTTTTTTTTTTTTTTTTTTT…TC
Details: aptamer strand: ATP DNA aptamer (quencher-CACCTGGGGGAGTATTGCGGAGGAAGG + anchor), 100 nM annealed; ATP concentration: 500 uM
How it was run: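 The quencher-labelled ATP aptamer, at 100 nM, was annealed to Cy3-labelled switching-strand clusters on a modified Illumina MiSeq flow-cell. The clusters were imaged in selection buffer, then after 15 min with 500 uM ATP at 22 °C, and this buffer/ATP cycle ran five times with NaOH stripping and re-annealing between runs. Per-cluster fluorescence ratios, summed target-cycle over summed buffer-cycle Cy3 intensity, were averaged per switch-domain sequence. Clusters outside 100-1000 RFU were excluded.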
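Also: ATP exposure 15 min at 22 °C before imaging.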

Sequence	switch fluorescence ratio
TCGGCGGTTT	0.977 ± 0.058
TCGGCTATGA	1.03 ± 0.021
TCGGGAACGA	0.999 ± 0.028
TCGGGACATC	1.03 ± 0.032
TCGGGAGCCT	0.973 ± 0.015
TCGGGAGGGG	0.989 ± 0.033
TCGGGAGTAC	1.01 ± 0.015
TCGGGATCTG	0.997 ± 0.018
TCGGGATGGC	1.03 ± 0.024
TCGGGATTTA	1.02 ± 0.033
TCGGGCAGGT	1.06 ± 0.064
TCGGGGATCG	1.006 ± 0.0025
TCGGGGCCAA	0.991 ± 0.019
TCGGGGGAAT	1.11 ± 0.14
TCGGGGGCTG	0.9799 ± 0.0077
TCGGGGGGCA	0.992 ± 0.028
TCGGGGGTCC	1 ± 0.066
TCGGGGTAGC	0.974 ± 0.025
TCGGGGTCGG	1.03 ± 0.016
TCGGGGTCGT	0.9859 ± 0.0065
TCGGGGTTA	0.979 ± 0.029
TCGGGGTTCA	1.04 ± 0.03
TCGGGGTTGT	1.01 ± 0.087
TCGGGTAAGC	1.014 ± 0.0052
TCGGGTACGT	0.967 ± 0.032
TCGGGTAGGG	0.991 ± 0.025

Sequence	switch fluorescence ratio
TCGGGTCTGC	1.01 ± 0.015
TCGGGTTGTA	1 ± 0.025
TCGGGTTTAG	1.04 ± 0.04
TCGGGTTTGG	1.01 ± 0.041
TCGGTACGG	1.07 ± 0.017
TCGGTAGGGG	0.999 ± 0.025
TCGGTATATG	0.991 ± 0.011
TCGGTATGAG	0.9698 ± 0.0027
TCGGTCCAGG	1.39 ± 0.14
TCGGTGCGAC	1.04 ± 0.032
TCGGTGTGAG	1.01 ± 0.03
TCGGTGTGCG	1.03 ± 0.033
TCGGTGTGCT	1.06 ± 0.064
TCGGTTAGT	0.96 ± 0.054
TCGGTTCGTG	1.01 ± 0.054
TCGGTTTATA	0.997 ± 0.01
TCGGTTTGGA	1.019 ± 0.0063
TCGGTTTGGT	1.01 ± 0.024
TCGTAAGAAA	1.01 ± 0.043
TCGTACAGTT	1.03 ± 0.02
TCGTACGTTT	1.04 ± 0.021
TCGTAGCTAA	4.37 ± 0.23
TCGTAGGCCT	0.981 ± 0.061
TCGTAGGGTC	0.982 ± 0.047
TCGTATCGGG	1 ± 0.034
TCGTATCGTA	0.975 ± 0.013

Sequence	switch fluorescence ratio
TCGTATGCGT	1.11 ± 0.25
TCGTATGTTT	0.985 ± 0.021
TCGTCAAAGA	1.07 ± 0.023
TCGTCATTGC	1.22 ± 0.037
TCGTCGGGGC	1.03 ± 0.029
TCGTCGTACG	1.02 ± 0.021
TCGTCGTAGG	1.01 ± 0.03
TCGTGAACGT	0.978 ± 0.011
TCGTGCAACA	0.983 ± 0.025
TCGTGCTGCG	1.0004 ± 0.00051
TCGTGGAGGT	0.985 ± 0.036
TCGTGGGGGA	1.02 ± 0.028
TCGTGGGGGT	0.979 ± 0.045
TCGTGGGGTT	1.02 ± 0.012
TCGTGGTCTG	0.999 ± 0.036
TCGTGTAAAC	0.981 ± 0.028
TCGTGTATTG	0.984 ± 0.026
TCGTGTTCTG	1.01 ± 0.029
TCGTGTTTCA	1 ± 0.014
TCGTTACAGA	1.02 ± 0.045
TCGTTATGGA	0.987 ± 0.035
TCGTTATTTT	1.04 ± 0.052
TCGTTCACTG	0.9891 ± 0.007
TCGTTCAGGA	0.995 ± 0.013
TCGTTCCGGT	1.02 ± 0.026
TCGTTGAGGG	0.96 ± 0.036

Sequence	switch fluorescence ratio
TCGTTGATGT	1 ± 0.049
TCGTTGTTAG	0.992 ± 0.02
TCGTTTAGCA	1.07 ± 0.029
TCGTTTCCGT	0.984 ± 0.035
TCGTTTGAGT	0.997 ± 0.021
TCTAACGCTG	1.13 ± 0.056
TCTAACTTTT	1.01 ± 0.033
TCTAAGGGAG	0.987 ± 0.012
TCTAATAGCC	1.03 ± 0.08
TCTAATGGGC	0.993 ± 0.05
TCTAATGGGT	0.982 ± 0.017
TCTAATTCCT	1.06 ± 0.024
TCTAGAGCGG	1.02 ± 0.029
TCTAGGGACA	1.25 ± 0.063
TCTAGGGGGG	1.02 ± 0.058
TCTATAAGGA	1.01 ± 0.048
TCTATAAGTT	1.02 ± 0.044
TCTATGCGGG	1.017 ± 0.0013
TCTATTATCA	1.04 ± 0.024
TCTATTATTT	1.03 ± 0.061
TCTATTGGTG	1.02 ± 0.069
TCTATTGGTT	0.966 ± 0.021
TCTATTTCGT	1.01 ± 0.032
TCTCATTCTT	1.03 ± 0.028
TCTCATTGGG	0.9875 ± 0.004
TCTCCAGATA	1.12 ± 0.034

Sequence	switch fluorescence ratio
TCTCCAGGAA	1.62 ± 0.3
TCTCCGTGGG	1.52 ± 0.37
TCTCGATTTT	1.038 ± 0.0042
TCTCGCTTGG	1.02 ± 0.037
TCTCGGCGGA	1.02 ± 0.028
TCTCGGGCTT	0.9873 ± 0.0047
TCTCGGGGTG	1.04 ± 0.089
TCTCGTATAT	1.05 ± 0.045
TCTCGTCTCT	1.04 ± 0.028
TCTCGTTGGG	1.012 ± 0.005
TCTCGTTTTT	1 ± 0.043
TCTCTAAAGA	1.04 ± 0.016
TCTCTATCCG	0.997 ± 0.046
TCTCTGAATC	1.24 ± 0.079
TCTCTGGAGA	1.04 ± 0.011
TCTCTGGCAT	1.79 ± 0.19
TCTCTGTTTT	1.05 ± 0.022
TCTGAAAGTG	0.989 ± 0.059
TCTGAACGGT	0.983 ± 0.023
TCTGAGAGGA	0.972 ± 0.032
TCTGAGCCGA	1.39 ± 0.52
TCTGAGCGGC	0.9349 ± 0.0037
TCTGAGTTTT	1.05 ± 0.06
TCTGATGGGG	1 ± 0.044
TCTGCCTTGG	0.984 ± 0.011
TCTGCTACAA	1.02 ± 0.038

Sequence	switch fluorescence ratio
TCTGCTTCCG	1.03 ± 0.02
TCTGGAAAGG	0.9844 ± 0.00033
TCTGGAAGGG	1.02 ± 0.019
TCTGGACTCG	1 ± 0.025
TCTGGGAAAA	0.918 ± 0.037
TCTGGGAAGG	1.01 ± 0.042
TCTGGGAATG	0.983 ± 0.01
TCTGGGGGGC	0.996 ± 0.075
TCTGGGGGGG	0.99 ± 0.052
TCTGGGGGTA	0.982 ± 0.022
TCTGGGTAAT	0.996 ± 0.0013
TCTGGGTAGC	1 ± 0.061
TCTGGGTGAT	1.03 ± 0.015
TCTGGTAGGG	0.99 ± 0.01
TCTGGTGGTT	0.981 ± 0.01
TCTGGTTTGT	1.04 ± 0.049
TCTGGTTTTT	1.01 ± 0.015
TCTGTCCCGC	1.16 ± 0.11
TCTGTGTTT	0.9348 ± 0.0089
TCTGTTTTTG	1.01 ± 0.063
TCTTAAAGGG	0.9808 ± 0.0011
TCTTACTGGG	0.997 ± 0.018
TCTTAGGGGT	0.981 ± 0.021
